The target of this test is CHL1 on ventral midbrain dopaminergic neurons (mouse (endogenous in ventral midbrain primary neurons)) (UniProt P70232).

Experimental findings from paper PMC5570898 are described below.

The substance “CHL1 recombinant protein (from UniProt P70232 26-1083) (natural protein)” showed an increase of TH+ neurite branching in E12.5 VM primary cultures on bound CHL1, against the Fc control of 2.4 fold; an increase of TH+ neurite branching in E12.5 VM primary cultures with soluble CHL1, against the PDL control of 5 fold; an increase of TH+ neurite length in E12.5 VM primary cultures on bound CHL1, against the Fc control of 1.8 fold; an increase of TH+ neurite length in E12.5 VM primary cultures with soluble CHL1, against the PDL control of 2 fold.
